Measured values published in EP4631972A1, “SITE-SPECIFIC COUPLED PEGYLATED INTERLEUKIN-2 MUTANT WITH RECEPTOR AFFINITY PREFERENCE AND USE THEREOF” (priority 2022, dated 2024).

Experiments:
Treg cells [1] = assay: Pharmacodynamic (PD) study in mice, peripheral Treg cells; type: in vivo, Balb/c mice; settings: 1 mg/kg s.c. single administration
Protocol: In this example, the pharmacodynamics (PD) of each IL-2 mutant obtained in Example 6 was studied in mice after a single administration to mice. SPF grade Balb/c mice were purchased and randomly divided into groups according to body weight, with 3 mice in each group. Drug administration started on the day of grouping. The dosing and grouping information is shown in Table 9, where G1-G5 were administered once, G6 and G7 were administered once a day, for a total of three doses. 30 µl of blood was taken from each group of mice, for PEGylated IL2 mutants and the negative control, blood was collected on day 0 (pre-administration), day 2, 3, 4, 5, 6 and 7 (only for G3, G4 and G5), and for IL2 and IL2-N88R, blood was collected on day 0 (pre-administration), day 1, 2 and 3. The number of each cell subpopulation was measured by flow cytometry. Antibodies against the staining marker used in flow cytometry are shown in Table 10, and the gating settings are shown in Table 11. Table 9 Dosing and grouping table for single-dose PD study in mice

Treg cells [2] = assay: Pharmacodynamic study in cynomolgus monkeys, peripheral Treg cells; type: in vivo; settings: doses ≤400 µg/kg
From the text: For information on administration and grouping, see Table 14.

[3] = Pharmacokinetic study in cynomolgus monkeys; settings: cynomolgus monkey
Protocol: Blood was collected before and after administration (4h, 8h, 24h, 48h, 72h, 120h, 168h, 240h, 336h) in the first cycle and after administration (8h, 24h, 48h, 72h, 120h, 168h, 240h) in the second cycle to detect plasma drug concentration.

[4] = mouse, in vivo, sc, 1 mg/kg
Protocol: (§1) Balb/c mice were purchased, with 4 mice in each group. Each IL-2 mutant to be tested was administered subcutaneously once at a dose of 1 mg/kg. Blood was collected from the orbit at different time points after administration, and the plasma was separated and the plasma drug concentration was detected by ELISA. The main pharmacokinetic parameters were calculated, and C-T curve was plotted.

Treg cells [5] = assay: P-STAT5 activation in Treg cells of human PBMCs (flow cytometry); type: cell-based; settings: P-STAT5 MFI in CD3+/CD4+/CD25+ cells of human PBMCs, 30 min stimulation
Protocol: In the example, the activation effect of each mutant prepared in Example 6 on P-STAT5 in different cell subsets (Tregs, CD8+T cells, NK cells) from human PBMCs (Miaoshun Biotechnology) was detected.
Human PBMC cells were thawed and resuspended to 1.5×10^6 cells/ml in RPMI1640 medium containing 10% FBS. 100 µl was added to each well of a V-bottom 96-well culture plate. Each IL-2 mutant prepared in Example 6 was diluted 10-fold in series: 1000 nM was used as the working concentration for the first well, and then 100 µl/well of each serial dilution was added to each cultured cell, stimulated at 37°C for 30 min, and the reaction was terminated on ice. The cells were treated with a commercial fixative and permeabilization agent (BD biosciences 558049 & 558050), and stained with antibodies against CD3, CD4, CD25, and CD8 according to conventional methods. P-STAT5 antibody staining was also performed (Table 7) to detect the mean fluorescence intensity (MFI) of P-STAT5 in CD3+/CD4+/CD25+ (Treg cells) and CD8+/CD3+ cells ([…]) by flow cytometry.

[6] = Pharmacokinetic study in mice, single administration, plasma concentration by ELISA; settings: 1 mg/kg s.c. single administration
Protocol: as §1

[7] = female, first-cycle dosing 50 µg/kg s.c.
[8] = female, second-cycle dosing 400 µg/kg s.c.
[9] = male, first-cycle dosing 50 µg/kg s.c.
[10] = male, second-cycle dosing 400 µg/kg s.c.

60K-1PEG-IL2-N88R-N77C: IL2-N88R-N77C with 60 kDa PEG conjugated to the cysteine at position 77
activation peak of Treg proportion, time (Treg cells [1]): 6 days | increase in Treg proportion at peak (Treg cells [1]): about 15 fold | activation and proliferation of peripheral blood Treg cells (Treg cells [2]): clear activation and proliferation | AUC inf [3, 7]: 181.7098 µg·h/mL | AUClast [3, 7]: 148.6109 µg·h/mL | CL [3, 7]: 0.28 | Cmax [3, 7]: 701.0718 ng/mL | MRT [3, 7]: 128.4211 h | Tmax [3, 7]: 72 h | AUC inf [3, 8]: 2158.472 µg·h/mL | AUClast [3, 8]: 1360.931 µg·h/mL | CL [3, 8]: 0.19 | Cmax [3, 8]: 10419.65 ng/mL | MRT [3, 8]: 101.9 h | Tmax [3, 8]: 8 h | AUC inf [3, 9]: 213.0031 µg·h/mL | AUClast [3, 9]: 157.7992 µg·h/mL | CL [3, 9]: 0.23 | Cmax [3, 9]: 815.2866 ng/mL | MRT [3, 9]: 135.9233 h | Tmax [3, 9]: 48 h | AUC inf [3, 10]: 2122.205 µg·h/mL | AUClast [3, 10]: 1412.112 µg·h/mL | CL [3, 10]: 0.19 | Cmax [3, 10]: 10199.77 ng/mL | MRT [3, 10]: 100.7 h | Tmax [3, 10]: 8 h | T1/2 [4]: 20.78 ± 1.92 h | EC50 (Treg cells [5]): 35.1 nM | AUC inf [6]: 392.06252 ± 33.89153 µg·h/mL | AUClast [6]: 380.55249 ± 34.19595 µg·h/mL | CL [6]: 2.56±0.22 | Cmax [6]: 6633.54 ± 581.69 ng/mL | MRT [6]: 39.45 ± 0.44 h | Tmax [6]: 8 to 24 h | mean half-life [6]: 20.78 h | mean residence time (MRT) [6]: 39.45 h
